What was measured:
[1] = Aggregation after dialysis of purified polypeptide solution; format: physicochemical; set-up: key: G: The formation of an aggregate was not observed.; A: The formation of particles having a particle size of about 100 nm was observed.; B: The formation of an aggregation of particles having a particle size of equal to or greater than 1 mm was visually observed
Description: For RCP-1 to RCP-11, each of the purified polypeptide solutions was dialyzed using Slide-A-Lizer (3.5 K MWCO.). Basically, by using a dialysis buffer (PBS, 1.5 M NaCl, 0.5 M L-arginine, 1 mM EDTA, pH 7.4) as an outer dialysate, urea was removed by stepwise dialysis. The concentration of the end-product of dialysis was calculated from the absorbence at 280 nm by using NanoDrop (Thermo Fisher Scientific Inc.).
Whether or not aggregation was occurred was evaluated based on the scale of A, and B as shown below.
G: The formation of an aggregate was not observed.
A: The formation of particles having a particle size of about 100 nm was observed.
B: The formation of an aggregation of particles having a particle size of equal to or greater than 1 mm was visually observed.

human iPS cells ("Tic") = assay: Cell adhesiveness evaluation 1 (ALP activity of adhesive iPS cells); format: cell-based; details: 30,000 cells/well, 24 hours, natural vitronectin (sample 15) = 100%, n=3
Procedure, shortened: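 Peptides and controls were adsorbed onto wells for 2 h at 37 °C. Single-cell human iPS cells in TeSR2 with 10 μM Y-27362 were seeded at 30,000 cells/well. After 24 h, non-adherent cells were washed off and adherent cells fixed; cell number came from ALP activity via a calibration curve. Adhesion is expressed relative to natural vitronectin (100%), n=3.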

iPS cells = assay: Growth evaluation, number of cells after 3 days; format: cell-based, human; details: 5,000 cells/well
Description: By adding RCP-1 to RCP-11 and Human Recombinant Laminin-511 as control at the concentration shown in Table 9, samples 1 to 12 were prepared. The samples were seeded into a 96-well plate, onto which each of the polypeptides was adsorbed in the same manner as in <Cell adhesiveness evaluation 1>, at a ratio of 5,000 cells/well and cultured for 3 days in a CO2 incubator at 37° C. The number of cells after 3 days was calculated in the same manner as in <Cell adhesiveness evaluation 1>. In Table 9, the number of cells after 3 days is expressed as a ratio calculated by regarding the number of cells obtained by using the sample 1 as being 100%.

| Molecule | Aggregation [1] | Cell adhesion rate (%) (human iPS cells ("Tic"); added amount 10 μg/cm^2) | Number of cells after 3 days (%) (iPS cells; added amount 10 μg/cm^2, sample 1 (RCP-1) = 100%) | Cell adhesion rate (%) (human iPS cells ("Tic"); added amount 5 μg/cm^2) | Number of cells after 3 days (%) (iPS cells; added amount 5 μg/cm^2, sample 1 (RCP-1) = 100%) | Cell adhesion rate (%) (human iPS cells ("Tic"); added amount 200 pmol/cm^2) | Number of cells after 3 days (%) (iPS cells; added amount 80 μg/cm^2, sample 1 = 100%) |
| --- | --- | --- | --- | --- | --- | --- | --- |
| RCP-5: recombinant polypeptide for culture, SEQ ID NO: 19; vitronectin positions 1-55, 302-341, 342-373 (protein, Vitronectin-derived Recombinant Protein (RCP-5)) MDQESCKGRCTEGFNVDKKCQCDELCSYYQSCCTDYTAECKPQVTRGDVFTMPEDEFWGRTSAGTRQPQFISRDWHGVPGQVDAAMAGRIYISGMAPRPSLAKKQRFRHRNRKGYRSQRGHSRGRNQN | G | 94.1 ± 6.5 | 121.2 | – | – | – | – |
| RCP-11: recombinant polypeptide for culture, SEQ ID NO: 25; vitronectin positions 1-55, 269-277, 295-341, 342-373, C274S (protein, Vitronectin-derived Recombinant Protein (RCP-11), vitronectin positions 1-55, 269-277, 295-341, 342-373, C274S) MDQESCKGRCTEGFNVDKKCQCDELCSYYQSCCTDYTAECKPQVTRGDVFTMPEDESQEESEGSEDIFELLFWGRTSAGTRQPQFISRDWHGVPGQVDAAMAGRIYISGMAPRPSLAKKQRFRHRNRKGYRSQRGHSRGRNQN | A | – | – | 95.9 ± 4.6 | 153.5 | – | – |
| RCP-1: recombinant polypeptide for culture, SEQ ID NO: 15; human vitronectin positions 1-55 and 269-459 with N-terminal methionine (protein, Vitronectin-derived Recombinant Protein (RCP-1)) MDQESCKGRCTEGFNVDKKCQCDELCSYYQSCCTDYTAECKPQVTRGDVFTMPEDEPSQEECEGSSLSAVFEHFAMMQRDSWEDIFELLFWGRTSAGTRQPQFISRDWHGVPGQVDAAMAGRIYISGMAPRPSLAKKQRFRHRNRKGYRSQRGHSRGRNQNSRRPSRATWLSLFSSEESNLGANNYDDYRMDWLVPATCEPIQSVFFFSGDKYYRVNLRTRRVDTVDPPYPRSIAQYWLGCPAPGHL | A | – | – | – | – | 109.3 ± 5.3 | 100.0 |
